These results are taken from US20110118181A1 (INSTITUT DE RECHERHES CLINIQUES DE MONTREAL, published 2011).

For experiment [1], the target named is T1, PCSK9-V5 (full-length human PCSK9 with C-terminal V5 tag) (human, UniProt Q8NBP7 31-692).
T1 construct: Used as conditioned medium of CHO-K1 cells (Far Western, pull-down) or co-expressed in cells (co-IP); The background says PCSK9 is secreted as a prosegment-PCSK9 heterodimer; also called full-length (FL) PCSK9-V5; native PCSK9; not shown: C-terminal V5 tag
The experiment can be described thus: poly-histidine pull-down, AnxA1-(His)6 on cobalt chelate beads, PCSK9-V5 medium. Here is the method:
(§1) FIG. 4. Characterization of the interaction of PCSK9 with AnxA2. (A) PCSK9-V5 Far Western blot of lysates of COS-1 cells, wild type (WT) CHO-K1 cells, CHO-K1 cells overexpressing an empty vector (pIRES), AnxA1 or AnxA2. (B) Poly-histidine pull-down assay. Purified native AnxA2-(His)₆ or AnxA1-(His)₆ were immobilized on cobalt chelate beads and incubated with PCSK9-V5. […] PCSK9 (heavy arrow) and its furin-cleaved form (PCSK9-Δ218; light arrow) were pulled-down by AnxA2. (C) Co-immunoprecipitation experiments of CHO-K1 cells co-transfected with PCSK9-V5 and either AnxA1-HA, AnxA2-HA or with AnxA2-HA and p11. […] Expression of the transfected constructs was analyzed by Western blotting of cell lysates using the anti-V5-HRP or anti-HA-HRP antibodies. (D, left panel) PCSK9-V5 Far Western blots of purified AnxA2-(His)₆ in the absence or presence of reducing agents. Note that in non-reducing conditions, PCSK9-V5 binds both the dimer and monomer forms of AnxA2. (D, right panel) Western blots of the purified AnxA2-(His)₆ using the anti-AnxA2 mAb in non-reducing or reducing conditions. […]
20 μg of purified AnxA2-(His)₆ or AnxA1-(His)₆ or no proteins (for negative control) were immobilized onto a cobalt chelate resin (Thermo Scientific). […] Supernatants were analyzed by Western blot as described above using the anti-V5-HRP or anti-His-HRP antibodies.

For experiment [2], the target named is T1, PCSK9-V5 (full-length human PCSK9 with …). Nature of the experiment: co-immunoprecipitation with anti-V5 from co-transfected CHO-K1 cells. As for the experimental part: as §1, with “conditions. (E, upper panel) Media from CHO-K1 cells expressing PCSK9-V5 or the CHRD-V5 were separated by SDS-PAGE (8%), transferred onto nitrocellulose, incubated with purified AnxA2-(His)₆ and probed with the anti-His-HRP antibody.” for “conditions.”

B1: purified AnxA1-(His)6 (other)
chain: MAMVSEFLKQAWFIENEEQEYVQTVKSSKGGPGSAVSPYPTFNPSSDVAALHKAIMVKGVDEATIIDILTKRNNAQRQQIKAAYLQETGKPLDETLKKALTGHLEEVVLALLKTPAQFDADELRAAMKGLGTDEDTLIEILASRTNKEIRDINRVYREELKRDLAKDITSDTSGDFRNALLSLAKGDRSEDFGVNEDLADSDARALYEAGERRKGTDVNVFNTILTTRSYPQLRRVFQKYTKYSKHDMNKVLDLELKGDIEKCLTAIVKCATSKPAFFAEKLHQAMKGVGTRHKALIRIMVSRSEIDMNDIKAFYQKMYGISLCQAILDETKGDYEKILVALCGGNHHHHHH
As to B1, the binding result in experiment [1] is listed as “no binding”.

B2: AnxA1-HA (human AnxA1 with C-terminal HA epitope) (other)
chain: MAMVSEFLKQAWFIENEEQEYVQTVKSSKGGPGSAVSPYPTFNPSSDVAALHKAIMVKGVDEATIIDILTKRNNAQRQQIKAAYLQETGKPLDETLKKALTGHLEEVVLALLKTPAQFDADELRAAMKGLGTDEDTLIEILASRTNKEIRDINRVYREELKRDLAKDITSDTSGDFRNALLSLAKGDRSEDFGVNEDLADSDARALYEAGERRKGTDVNVFNTILTTRSYPQLRRVFQKYTKYSKHDMNKVLDLELKGDIEKCLTAIVKCATSKPAFFAEKLHQAMKGVGTRHKALIRIMVSRSEIDMNDIKAFYQKMYGISLCQAILDETKGDYEKILVALCGGNYPYDVPDYA
As to B2, in experiment [2], the binding result is listed as “no binding”.
